# Source: PMC5384396 (Oncoimmunology, 2017)
# T1: hGITR on hGITR-transfected Jurkat cells (human, UniProt Q9Y5U5 26-241)
# T1 sequence: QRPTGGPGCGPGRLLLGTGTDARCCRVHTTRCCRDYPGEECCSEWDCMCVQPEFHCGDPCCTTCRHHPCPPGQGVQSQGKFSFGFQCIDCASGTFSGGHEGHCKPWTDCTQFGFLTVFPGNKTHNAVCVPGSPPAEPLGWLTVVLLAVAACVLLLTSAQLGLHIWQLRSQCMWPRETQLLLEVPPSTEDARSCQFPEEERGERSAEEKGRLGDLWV
# Key:
# [1] = target: T1, hGITR on hGITR-transfected Jurkat cells; assay: cell-based or functional assay
# [2] = target: the molecule itself
binder,measurement,setting,value
hGITRL FP with the yeast GCN4 pII trimerization domain (Fc fusion) not shown,"NFκB-luciferase reporter in hGITR-transfected Jurkat cells, agonism EC50",[1],0.89 nM
same,stoichiometry N,[2],6
